# Measured values as given in paper PMC6052347, “Structure and Function of the Campylobacter jejuni Chromosome Replication Origin”.
# T1: 6HisCj1509 (Campylobacter jejuni 81116 (NCTC11828)?, UniProt Q0P820 1-295)
# T1 sequence: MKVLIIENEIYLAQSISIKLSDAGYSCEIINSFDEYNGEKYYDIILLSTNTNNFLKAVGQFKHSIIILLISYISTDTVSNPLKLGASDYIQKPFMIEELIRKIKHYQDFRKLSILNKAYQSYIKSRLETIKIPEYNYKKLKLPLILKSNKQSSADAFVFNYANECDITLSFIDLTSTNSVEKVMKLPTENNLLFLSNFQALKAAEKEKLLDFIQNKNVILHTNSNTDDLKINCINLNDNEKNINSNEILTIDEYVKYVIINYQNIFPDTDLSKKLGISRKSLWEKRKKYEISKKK
# Molecular target: T1, 6HisCj1509
# Experiment: EMSA; higher affinity than boxes 1 and 3; EMSA: room temperature, 15 min, up to 30 nM DnaA or 400 nM Cj1509, 4% PAGE in 1x TBE; box probes 0.4 uM; binding buffer not given (as in Jaworski 2016); DnaA with 5 mM ATP (footprinting) or 3 mM ATP (EM)
# Conditions: protein: recombinant; tags: N-terminal 6xHis (pET28a); chain copies: 2; label: FAM 5' on E7; blunt; three strands, nick between E7 and E10, E11 complementary to E7+E10
binder,measurement,value
Cj1509 box 2 probe (E7-E10-E11) (dsDNA) DNA 1: GTGCCCTGGTCTGG DNA 2: TTTGAAGAATGTTACAATTTCAACA DNA 3: TGTTGAAATTGTAACATTCTTCAAACCAGACCAGGGCAC,binding result,binds
